Data set [1] has as its target T1, SrSSB D17K D71K mutant (Salinibacter ruber).
T1 chain: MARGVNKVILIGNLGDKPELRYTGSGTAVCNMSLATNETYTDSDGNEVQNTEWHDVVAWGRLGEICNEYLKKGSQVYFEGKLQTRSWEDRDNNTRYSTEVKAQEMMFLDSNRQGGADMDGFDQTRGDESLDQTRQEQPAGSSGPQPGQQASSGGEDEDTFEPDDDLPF
The data set is described as follows: SPR; 10 mM Tris-HCl pH 7, 10 mM NaCl; Chi2 0.624. Conditions: chain copies: octamer (stated); label: 5'-biotin. From the text: (§1) Higher binding affinity of the D17K D71K mutant was also confirmed by probing the protein-ssDNA interaction strength directly with the use of Surface Plasmon Resonance on a T200 instrument (BIACORE). This biosensor-based technique enables real-time measurement of binding parameters that enables calculation of equilibrium dissociation constant (KD) of different complexes, including nucleoprotein complexes. To ensure that the measurement is not biased by nucleotide sequence, a randomly generated, 150 nucleotide, 5′-biotynylated ssDNA oligonucleotide was used (Table 2, SEQ ID NO:11). Oligonucleotides were attached to the surface of the SA S-type chip (BIACORE) via biotin-streptavidin interaction. Next, both proteins were run in dilutions: 10 nM, 20 nM, 40 nM, 100 nM, 150 nM, 200 nM, 300 nM over the chip surface in MB buffer (10 mM Tris-HCl pH 7, 10 mM NaCl). The binding event was detected by mass change on the chip surface, which enabled real time measurements of the kinetic parameters of protein-ssDNA interaction.
In general terms: SPR reads the build-up and loss of mass on a sensor chip optically.

Data set [2] has as its target T2, wild-type Salinibacter ruber SSB (SrSSB) (Salinibacter ruber DSM 13855).
T2 chain: T1 chain with K17D, K71D
The data set is described as follows: SPR; 10 mM Tris-HCl pH 7, 10 mM NaCl; Chi2 0.529. The note with it: chain copies: octamer/dodecamer mixture at 0.15 M NaCl; mostly octamer at 2 M NaCl (stated); label: 5'-biotin.
Description: as §1

The target of data set [3] is T1, SrSSB D17K D71K mutant. In words: beacon dehybridization fluorescence, 2 uM protein; level similar to wt at half the concentration; maintained in high NaCl, KCl, MgCl2; 25 C. The note with it: chain copies: octamer (stated); label: dT-DABCYL and dT-FAM internal; partial hairpin with short 8 bp stem and 24 nt single-stranded loop. As to the method:
(§2) Wild-type S.ruber SSB and the D17K D71K mutant were tested for their ability to bind ssDNA in reaction buffer supplemented with NaCl, KCl, MgCl₂ and CaCl₂. E. coli SSB was used as a well characterized, reference protein.
(§3) Reactions contained 0.125 μM of molecular beacon and 0.25 μM of E. coli SSB tetramer (single binding unit), 4 μM of wt SrSSB and 2 μM of D17K D71K. Reaction mixtures were set up in triplicates in 50 μl of reaction buffer MB (10 mM Tris-HCl pH 7, 10 mM NaCl) containing the fluorescent probe and supplemented with an indicated concentration of NaCl, KCl or MgCl₂ in 96-well plate (Corning). The binding reaction was initiated by addition of the indicated SSB protein, next reactions were incubated at 25° C. for 15′ and the fluorescence was measured with excitation at 495 nm and emission at 520 nm on the Gemini plate reader (Molecular Devices). All graphs were normalized to 100% of initial response, measured in fluorescence units.

For data set [4], the target named is E. coli SSB (Escherichia coli, UniProt P0AGE0 P0AGE0:2-178). The data set is described as follows: beacon fluorescence, 0.25 uM tetramer; binding decreases significantly with increasing concentration of all tested salts; 25 C. Conditions: chain copies: tetramer (stated); label: dT-DABCYL and dT-FAM internal; partial hairpin with short 8 bp stem and 24 nt single-stranded loop. As to the method: as §2, §3

Data set [5] deals with T2, wild-type Salinibacter ruber SSB (SrSSB). The data set is described as follows: beacon dehybridization fluorescence, 4 uM protein; binding maintained with NaCl to 1 M, KCl to 1 M, MgCl2 to 250 mM; 25 C. Conditions: chain copies: octamer/dodecamer mixture at 0.15 M NaCl; mostly octamer at 2 M NaCl (stated); label: dT-DABCYL and dT-FAM internal; partial hairpin with short 8 bp stem and 24 nt single-stranded loop. As to the method:
as §2, §3

For data set [6] the target is unchanged. The data set is described as follows: structure; PDB 5ODN; d(T)8 soaked; one ssDNA fragment per OB-fold; 0.25 M MgCl2, 1 M ammonium sulphate, pH 8.0. The note with it: chain copies: octamer/dodecamer mixture at 0.15 M NaCl; mostly octamer at 2 M NaCl (stated). As to the method:
Small, prism-shaped crystals of wild-type S. ruber SSB were obtained in sitting drops consisting of 1 μl of protein solution (5 mg/ml) containing 20 μM of d(T)₇₅ oligonucleotide and 1 μl of reservoir solution (27% w/v PEG 3350, 100 mM Tris-HCl pH 8.0, 0.25M MgCl₂, 1 M ammonium sulphate). Soaking experiments were performed by adding d(T)₈ oligonucleotide to the drops containing formed crystals, to a final concentration of 0.25 μM.

Substitutions are numbered along the chain they refer to.

E. coli SSB, sequence (P0AGE0 2-178, one chain of several): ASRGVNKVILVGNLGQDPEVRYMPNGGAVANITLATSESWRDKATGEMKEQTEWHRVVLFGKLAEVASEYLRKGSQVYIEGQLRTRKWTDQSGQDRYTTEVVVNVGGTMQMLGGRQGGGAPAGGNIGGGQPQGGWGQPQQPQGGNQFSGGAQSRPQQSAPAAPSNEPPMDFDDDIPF

B1: SPR 150nt oligonucleotide (ssDNA)
DNA: AAAGGGTATTGACGGACCAGATGTAGCGTGGCAGAAAAGGGTATTGACGGACCAGATGTAGCGTGGCAGAGACTGAAAGGGTATTGACGGACCAGATGTAGCGTGGCAGAAAAGGGTATTGACGGACCAGATGTAGCGTGGCAGAGACTG
B1: the Kd in data set [1] stood at 19.1 nM; in data set [2] it was 34.3 nM.

B2: MB molecular beacon (ssDNA)
DNA: GGCCCGTAGGAGGAAAGGACATCTTCTAGCATACGGGCCGTCAAGTTCATGGCCAGTCAAGTCGTCAGAAATTTCGCACCAC
Turning to B2, the binding result in data set [3], in data set [4] and in data set [5] was “binds” each time.
Take TTTTTTTT (ssDNA) [d(T)8]: the binding result in data set [6] was “binds”.

For orientation: Kd means the free concentration of one partner at which half of the binding sites on the other are occupied at equilibrium, for simple one-to-one binding.

For the origin of these results see patent US20190376122, “SINGLE-STRAND BINDING PROTEIN” (Universitetet I Tromsø - Norges Arktiske Universitet, published 2019).
